# Experimental data taken from patent CN116670173A (LAMCAP BIOTEST LTD, dated 2023).
# Numbering of substitutions follows the chain as printed.
# B1: K2AC84 (bispecific antibody, human IgG1, kappa, lambda)
# heavy: not shown
# light 1: QSVLTQPPSVSAAPGQKVTISCSGSSSNIGIGLVSWYQQLPGTAPKLLIYNVNTRPSGIPDRFSGSKSGTSATLGITGLQTGDEADYYCGTWDFSYRVDFGGGTKLTVLGQPKAAPSVTLFPPSSEELQANKATLVCLISDFYPGAVTVAWKADSSPVKAGVETTTPSKQSNNKYAASSYLSLTPEQWKSHRSYSCQVTHEGSTVEKTVAPTECS
# light 2: not shown
# notes: kappa-lambda body, human IgG1; Common heavy chain and CD47 light chain tied by embodiment language only; also called CD47xCEACAM5双特异性抗体K2AC84; CEACAM5xCD47双特异性抗体
# B2: K2AC22 (bispecific antibody, human IgG1, kappa, lambda)
# heavy: not shown
# light 1: B1 light 1 with G30A, I31N, L33I, N51F, V52D, T54L, R97G, V98I, D99V
# light 2: not shown
# notes: Comparator from WO2019234576; also called 现有技术的双特异性CEAxCD47抗体K2AC22
# B3: K2AC91 (bispecific antibody, human IgG1, kappa, lambda)
# heavy: not shown
# light 1: B1 light 1 with N51T, T54N, W92F, R97G, V98I, D99V
# light 2: not shown
# notes: kappa-lambda body, human IgG1; Common heavy chain and CD47 light chain tied by embodiment language only; also called CD47xCEACAM5双特异性抗体K2AC91; CEACAM5xCD47双特异性抗体
# B4: K2AC117 (bispecific antibody, human IgG1, kappa, lambda)
# heavy: not shown
# light 1: B1 light 1 with V52G, T54V
# light 2: not shown
# notes: kappa-lambda body, human IgG1; Common heavy chain and CD47 light chain tied by embodiment language only; also called CD47xCEACAM5双特异性抗体K2AC117; K2AC177 (as printed in some legends)
# B5: K2AC100 (bispecific antibody, human IgG1, kappa, lambda)
# heavy: not shown
# light 1: B1 light 1 with I31Y, V52G, T54I
# light 2: not shown
# notes: kappa-lambda body, human IgG1; Common heavy chain and CD47 light chain tied by embodiment language only; also called CD47xCEACAM5双特异性抗体K2AC100; CEAxCD47双特异性抗体K2AC100
# B6: K2AC82 (bispecific antibody)
# heavy: not shown
# light 1: QSVLTQPPSVSAAPGQKVTISCSGSSSNIGYGLVSWYQQLPGTAPKLLIYGINKRPSGIPDRFSGSKSGTSATLGITGLQTGDEADYYCGTWDFSYRVDFGGGTKLTVL
# light 2: not shown
# notes: kappa-lambda body, human IgG1, one arm for each target; Common heavy chain and CD47 light chain are tied to the antibodies of the invention by embodiment language only; also called CD47xCEACAM5双特异性抗体K2AC82; CEACAM5xCD47双特异性抗体; not shown: lambda constant domain; probably S
# Target: T1, 在MKN-45细胞表面表达的人CD47 (human, UniProt Q08722 19-323)
# T1 construct: whole, on cells; MKN-45 cells also carry CEACAM5; also called hCD47; CD47 on MKN-45 cells
# T1 sequence (Q08722 19-323): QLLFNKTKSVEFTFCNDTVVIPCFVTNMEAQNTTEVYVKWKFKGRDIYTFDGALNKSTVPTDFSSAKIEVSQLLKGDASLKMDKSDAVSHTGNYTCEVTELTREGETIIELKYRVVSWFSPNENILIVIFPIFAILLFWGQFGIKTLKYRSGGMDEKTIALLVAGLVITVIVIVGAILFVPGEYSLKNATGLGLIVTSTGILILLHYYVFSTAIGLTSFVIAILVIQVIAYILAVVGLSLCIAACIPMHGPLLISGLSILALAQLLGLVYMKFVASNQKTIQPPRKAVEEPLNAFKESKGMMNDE
# Assay: CD47/SIRPα blocking assay on MKN-45 cells, SIRPα-mouse Fc 50 ng/mL, imaging (CX5)
row,IC50,Binder
1,0.04 nM,B1
2,1.2 nM,B2
3,0.05 nM,B3
4,0.08 nM,B4
5,0.09 nM,B5
6,0.07 nM,B6
